Reference: paper PMC3366955

Experiments:
[1] = SEC-MALS
[2] = target: recombinant 42 kDa processed form of the P. falciparum merozoite surface protein 1, FVO allele (MSP1_(42)-FVO) (Plasmodium falciparum); test: SEC-MALS

| Substance | percent of the total peak area as aggregate [1] | percent of the protein as dimers [2] [%] | percent of the protein as multimers [2] [%] | stoichiometry N [2] |
| --- | --- | --- | --- | --- |
| recombinant 42 kDa processed form of the P. falciparum merozoite surface protein 1, FVO allele (MSP1_(42)-FVO) | approximately 1.7 MDa for 96% of the total peak area |  |  |  |
| recombinant 42 kDa processed form of the P. falciparum merozoite surface protein 1, FVO allele (MSP1_(42)-FVO) (domain or fragment) |  | 72 | 28 | 2 |
